Measurements as given in patent US20070207967A1, “Peptide Inhibitors of Matrix Metalloproteinase Activity” (CTT CANCER TARGETING TECHNOLOGIES OY, priority 2004, published 2007).
Ends that are not written are not given here.

Molecular target: 125I-labelled MMP-9 C domain (UniProt P14780)
Test: phage-binding assay, 125I-labelled against unlabelled MMP-9 C domain

125I-labelled MMP-9 C domain, sequence (P14780 513-707 limits assumed, form in doubt): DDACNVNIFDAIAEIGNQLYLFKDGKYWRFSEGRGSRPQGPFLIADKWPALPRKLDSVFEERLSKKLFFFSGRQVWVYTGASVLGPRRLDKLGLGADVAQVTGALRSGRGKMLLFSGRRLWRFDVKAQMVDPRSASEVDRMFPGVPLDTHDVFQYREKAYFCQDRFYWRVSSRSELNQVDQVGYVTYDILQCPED

B1: CRV phage (… displayed on phage) (peptide)
peptide: CRVYGPYLLC
modifications: cysteine pairing not given here; also: displayed on phage as coat protein fusion
% of CRV peptide-binding activity retained after 125I-labelling: 40%
